Measurements reported in publication PMC11574045, “A cofactor-induced repressive type of transcription factor condensation can be induced by synthetic peptides to suppress tumorigenesis” (The EMBO Journal, 2024).

System: HEK293FT cells transfected with TF library
Assay: Screening of TF condensates based on fluorescent puncta
Type: cell-based
Conditions: Figure 1B numerical data; TF library screen, one value per transcriptional factor
In short: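 Condensate formation is scored as Alexa 488-labelled puncta after Flag- or GAL4-tag immunostaining of fixed HEK293FT cells expressing individual TFs, with a 12 h glucose-free or glucose-containing culture preceding fixation.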

| Molecule | Z score of condensed fraction |
| --- | --- |
| NSD2 (protein, UniProt O96028 1-1365, looked up) Histone-lysine …: MEFSIKQSPLSVQSVVKCIKMKQAPEILGSANGKTPSCEVNRECSVFLSKAQLSSSLQEGVMQKFNGHDALPFIPADKLKDLTSRVFNGEPGAHDAKLRFESQEMKGIGTPPNTTPIKNGSPEIKLKITKTYMNGKPLFESSICGDSAADVSQSEENGQKPENKARRNRKRSIKYDSLLEQGLVEAALVSKISSPSDKKIPAKKESCPNTGRDKDHLLKYNVGDLVWSKVSGYPWWPCMVSADPLLHSYTKLKGQKKSARQYHVQFFGDAPERAWIFEKSLVAFEGEGQFEKLCQESAKQAPTKAEKIKLLKPISGKLRAQWEMGIVQAEEAASMSVEERKAKFTFLYVGDQLHLNPQVAKEAGIAAESLGEMAESSGVSEEAAENPKSVREECIPMKRRRRAKLCSSAETLESHPDIGKSTPQKTAEADPRRGVGSPPGRKKTTVSMPRSRKGDAASQFLVFCQKHRDEVVAEHPDASGEEIEELLRSQWSLLSEKQRARYNTKFALVAPVQAEEDSGNVNGKKRNHTKRIQDPTEDAEAEDTPRKRLRTDKHSLRKRDTITDKTARTSSYKAMEAASSLKSQAATKNLSDACKPLKKRNRASTAASSALGFSKSSSPSASLTENEVSDSPGDEPSESPYESADETQTEVSVSSKKSERGVTAKKEYVCQLCEKPGSLLLCEGPCCGAFHLACLGLSRRPEGRFTCSECASGIHSCFVCKESKTDVKRCVVTQCGKFYHEACVKKYPLTVFESRGFRCPLHSCVSCHASNPSNPRPSKGKMMRCVRCPVAYHSGDACLAAGCSVIASNSIICTAHFTARKGKRHHAHVNVSWCFVCSKGGSLLCCESCPAAFHPDCLNIEMPDGSWFCNDCRAGKKLHFQDIIWVKLGNYRWWPAEVCHPKNVPPNIQKMKHEIGEFPVFFFGSKDYYWTHQARVFPYMEGDRGSRYQGVRGIGRVFKNALQEAEARFREIKLQREARETQESERKPPPYKHIKVNKPYGKVQIYTADISEIPKCNCKPTDENPCGFDSECLNRMLMFECHPQVCPAGEFCQNQCFTKRQYPETKIIKTDGKGWGLVAKRDIRKGEFVNEYVGELIDEEECMARIKHAHENDITHFYMLTIDKDRIIDAGPKGNYSRFMNHSCQPNCETLKWTVNGDTRVGLFAVCDIPAGTELTFNYNLDCLGNEKTVCRCGASNCSGFLGDRPKTSTTLSSEEKGKKTKKKTRRRRAKGEGKRQSEDECFRCGDGGQLVLCDRKFCTKAYHLSCLGLGKRPFGKWECPWHHCDVCGKPSTSFCHLCPNSFCKEHQDGTAFSCTPDGRSYCCEHDLGAASVRSTKTEKPPPEPGKPKGKRRRRRGWRRVTEGK | -0.8212 |
| PFDN5 (protein, UniProt Q99471 2-154, looked up) Prefoldin subunit 5: AQSINITELNLPQLEMLKNQLDQEVEFLSTSIAQLKVVQTKYVEAKDCLNVLNKSNEGKELLVPLTSSMYVPGKLHDVEHVLIDVGTGYYVEKTAEDAKDFFKRKIDFLTKQMEKIQPALQEKHAMKQAVMEMMSQKIQQLTALGAAQATAKA | 0.7455 |
| NUP62 (protein, UniProt P37198 2-522, looked up) Nuclear pore glycoprotein p62: SGFNFGGTGAPTGGFTFGTAKTATTTPATGFSFSTSGTGGFNFGAPFQPATSTPSTGLFSLATQTPATQTTGFTFGTATLASGGTGFSLGIGASKLNLSNTAATPAMANPSGFGLGSSNLTNAISSTVTSSQGTAPTGFVFGPSTTSVAPATTSGGFSFTGGSTAQPSGFNIGSAGNSAQPTAPATLPFTPATPAATTAGATQPAAPTPTATITSTGPSLFASIATAPTSSATTGLSLCTPVTTAGAPTAGTQGFSLKAPGAASGTSTTTSTAATATATTTSSSSTTGFALNLKPLAPAGIPSNTAAAVTAPPGPGAAAGAAASSAMTYAQLESLINKWSLELEDQERHFLQQATQVNAWDRTLIENGEKITSLHREVEKVKLDQKRLDQELDFILSQQKELEDLLSPLEELVKEQSGTIYLQHADEEREKTYKLAENIDAQLKRMAQDLKDIIEHLNTSGAPADTSDPLQQICKILNAHMDSLQWIDQNSALLQRKVEEVTKVCEGRRKEQERSFRITFD | -0.01313 |
| ATOH8 (protein, UniProt Q96SQ7 1-321, looked up) Transcription factor ATOH8: MKHIPVLEDGPWKTVCVKELNGLKKLKRKGKEPARRANGYKTFRLDLEAPEPRAVATNGLRDRTHRLQPVPVPVPVPVPVAPAVPPRGGTDTAGERGGSRAPEVSDARKRCFALGAVGPGLPTPPPPPPPAPQSQAPGGPEAQPFREPGLRPRILLCAPPARPAPSAPPAPPAPPESTVRPAPPTRPGESSYSSISHVIYNNHQDSSASPRKRPGEATAASSEIKALQQTRRLLANARERTRVHTISAAFEALRKQVPCYSYGQKLSKLAILRIACNYILSLARLADLDYSADHSNLSFSECVQRCTRTLQAEGRAKKRKE | -1.0319 |
| OVOL3 (protein, UniProt O00110 1-190, looked up) Putative transcription factor …: MPRAFLVRSRRPQPPNWGHLPDQLRGDAYIPDCSSLGGPPAQQSSSVRDPWTAQPTQGNLTSAPRGPGTLGCPLCPKAFPLQRMLTRHLKCHSPVRRHLCRCCGKGFHDAFDLKRHMRTHTGIRPFRCSACGKAFTQRCSLEAHLAKVHGQPASYAYRERREKLHVCEDCGFTSSRPDTYAQHRALHRAA | -0.7593 |
| OLIG3 (protein, UniProt Q7RTU3 1-272, looked up) Oligodendrocyte transcription …: MNSDSSSVSSRASSPDMDEMYLRDHHHRHHHHQESRLNSVSSTQGDMMQKMPGESLSRAGAKAAGESSKYKIKKQLSEQDLQQLRLKINGRERKRMHDLNLAMDGLREVMPYAHGPSVRKLSKIATLLLARNYILMLTSSLEEMKRLVGEIYGGHHSAFHCGTVGHSAGHPAHAANSVHPVHPILGGALSSGNASSPLSAASLPAIGTIRPPHSLLKAPSTPPALQLGSGFQHWAGLPCPCTICQMPPPPHLSALSTANMARLSAESKDLLK | -0.3841 |
| PCBD (protein, UniProt P61457 2-104, looked up) Pterin-4-alpha-carbinolamine …: AGKAHRLSAEERDQLLPNLRAVGWNELEGRDAIFKQFHFKDFNRAFGFMTRVALQAEKLDHHPEWFNVYNKVHITLSTHECAGLSERDINLASFIEQVAVSMT | -0.6656 |
| PA2G4 (protein, UniProt Q9UQ80 2-394, looked up) Proliferation-associated …: SGEDEQQEQTIAEDLVVTKYKMGGDIANRVLRSLVEASSSGVSVLSLCEKGDAMIMEETGKIFKKEKEMKKGIAFPTSISVNNCVCHFSPLKSDQDYILKEGDLVKIDLGVHVDGFIANVAHTFVVDVAQGTQVTGRKADVIKAAHLCAEAALRLVKPGNQNTQVTEAWNKVAHSFNCTPIEGMLSHQLKQHVIDGEKTIIQNPTDQQKKDHEKAEFEVHEVYAVDVLVSSGEGKAKDAGQRTTIYKRDPSKQYGLKMKTSRAFFSEVERRFDAMPFTLRAFEDEKKARMGVVECAKHELLQPFNVLYEKEGEFVAQFKFTVLLMPNGPMRITSGPFEPDLYKSEMEVQDAELKALLQSSASRKTQKKKKKKASKTAENATSGETLEENEAGD | 0.5274 |
| ATONAL1 (protein, UniProt Q92858 1-354, looked up) Transcription factor ATOH1: MSRLLHAEEWAEVKELGDHHRQPQPHHLPQPPPPPQPPATLQAREHPVYPPELSLLDSTDPRAWLAPTLQGICTARAAQYLLHSPELGASEAAAPRDEVDGRGELVRRSSGGASSSKSPGPVKVREQLCKLKGGVVVDELGCSRQRAPSSKQVNGVQKQRRLAANARERRRMHGLNHAFDQLRNVIPSFNNDKKLSKYETLQMAQIYINALSELLQTPSGGEQPPPPPASCKSDHHHLRTAASYEGGAGNATAAGAQQASGGSQRPTPPGSCRTRFSAPASAGGYSVQLDALHFSTFEDSALTAMMAQKNLSPSLPGSILQPVQEENSKTSPRSHRSDGEFSPHSHYSDSDEAS | -0.5192 |
| PATZ1 (protein, UniProt Q9HBE1 1-687, looked up) POZ-, AT hook-, and zinc …: MERVNDASCGPSGCYTYQVSRHSTEMLHNLNQQRKNGGRFCDVLLRVGDESFPAHRAVLAACSEYFESVFSAQLGDGGAADGGPADVGGATAAPGGGAGGSRELEMHTISSKVFGDILDFAYTSRIVVRLESFPELMTAAKFLLMRSVIEICQEVIKQSNVQILVPPARADIMLFRPPGTSDLGFPLDMTNGAALAANSNGIAGSMQPEEEAARAAGAAIAGQASLPVLPGVDRLPMVAGPLSPQLLTSPFPSVASSAPPLTGKRGRGRPRKANLLDSMFGSPGGLREAGILPCGLCGKVFTDANRLRQHEAQHGVTSLQLGYIDLPPPRLGENGLPISEDPDGPRKRSRTRKQVACEICGKIFRDVYHLNRHKLSHSGEKPYSCPVCGLRFKRKDRMSYHVRSHDGSVGKPYICQSCGKGFSRPDHLNGHIKQVHTSERPHKCQTCNASFATRDRLRSHLACHEDKVPCQVCGKYLRAAYMADHLKKHSEGPSNFCSICNRGFSSASYLKVHVKTHHGVPLPQVSRHQEPILNGGAAFHCARTYGNKEGQKCSHQDPIESSDSYGDLSDASDLKTPEKQSANGSFSCDMAVPKNKMESDGEKKYPCPECGSFFRSKSYLNKHIQKVHVRALGGPLGDLGPALGSPFSPQQNMSLLESFGFQIVQSAFASSLVDPEVDQQPMGPEGK | -0.2188 |
| OVOL1 (protein, UniProt O14753 1-267, looked up) Putative transcription factor …: MPRAFLVKKPCVSTCKRNWSELPDEERGEIYVPVSLGFCPPQPYREPEPSVAEPPSCPLALNMSLRDSSYSMAPGPCVVAQLPSEDMGHLTDPQSRDHGFLRTKMKVTLGDSPSGDLFTCRVCQKAFTYQRMLNRHMKCHNDVKRHLCTYCGKGFNDTFDLKRHVRTHTGVRPYKCSLCDKAFTQRCSLESHLKKIHGVQQKYAYKERRAKLYVCEECGCTSESQEGHVLHLKEHHPDSPLLRKTSKKVAVALQNTVTSLLQGSPHL | -0.194 |
| OLIG1 (protein, UniProt Q8TAK6 1-271, looked up) Oligodendrocyte transcription …: MYYAVSQARVNAVPGTMLRPQRPGDLQLGASLYELVGYRQPPSSSSSSTSSTSSTSSSSTTAPLLPKAAREKPEAPAEPPGPGPGSGAHPGGSARPDAKEEQQQQLRRKINSRERKRMQDLNLAMDALREVILPYSAAHCQGAPGRKLSKIATLLLARNYILLLGSSLQELRRALGEGAGPAAPRLLLAGLPLLAAAPGSVLLAPGAVGPPDALRPAKYLSLALDEPPCGQFALPGGGAGGPGLCTCAVCKFPHLVPASLGLAAVQAQFSK | -1.059 |
| PBX3 (protein, UniProt P40426 1-434, looked up) Pre-B-cell leukemia …: MDDQSRMLQTLAGVNLAGHSVQGGMALPPPPHGHEGADGDGRKQDIGDILHQIMTITDQSLDEAQAKKHALNCHRMKPALFSVLCEIKEKTGLSIRGAQEEDPPDPQLMRLDNMLLAEGVSGPEKGGGSAAAAAAAAASGGSSDNSIEHSDYRAKLTQIRQIYHTELEKYEQACNEFTTHVMNLLREQSRTRPISPKEIERMVGIIHRKFSSIQMQLKQSTCEAVMILRSRFLDARRKRRNFSKQATEILNEYFYSHLSNPYPSEEAKEELAKKCSITVSQVSNWFGNKRIRYKKNIGKFQEEANLYAAKTAVTAAHAVAAAVQNNQTNSPTTPNSGSSGSFNLPNSGDMFMNMQSLNGDSYQGSQVGANVQSQVDTLRHVINQTGGYSDGLGGNSLYSPHNLNANGGWQDATTPSSVTSPTEGPGSVHSDTSN | 0.7478 |
